Laboratory results published in article doi:10.1101/2023.07.03.547485 (bioRxiv, 2023).

Target: T1, 6His-msfGFP-TEV-Mis18FL (S. pombe, UniProt Q9P802 1-194)
T1 sequence (looked up): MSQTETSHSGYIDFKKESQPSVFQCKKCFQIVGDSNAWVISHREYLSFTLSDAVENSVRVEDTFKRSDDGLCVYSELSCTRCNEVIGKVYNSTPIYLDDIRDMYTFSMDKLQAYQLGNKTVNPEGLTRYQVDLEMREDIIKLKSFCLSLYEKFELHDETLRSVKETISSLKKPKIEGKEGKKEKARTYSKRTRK
Assay: pull-down

B1: 6His-MBP-Sad1(2-167) (domain or fragment, S. pombe, UniProt Q09825 2-167, looked up)
chain: FTNTPVGGKRERQNGAHPAWSTLGANSAQIHQNTADLASKMHKLRYTKIRSPPTRVSIESITPKQRFPAPNFEQAYHSNIRYEQEESDNEEFENVVKNGHEASTNVFYESDGDDEEFVNEEYENSIDEESDDEGYSLNEDTTATNASFRYPMNQRSTRKSQFYSSK
binding result: binds
